# Patent publication US20240101717A1 (BIONECURE THERAPEUTICS, published 2024)
# T1: human Trop-2 (human, UniProt P09758 27-323)
# T1 sequence (looked up): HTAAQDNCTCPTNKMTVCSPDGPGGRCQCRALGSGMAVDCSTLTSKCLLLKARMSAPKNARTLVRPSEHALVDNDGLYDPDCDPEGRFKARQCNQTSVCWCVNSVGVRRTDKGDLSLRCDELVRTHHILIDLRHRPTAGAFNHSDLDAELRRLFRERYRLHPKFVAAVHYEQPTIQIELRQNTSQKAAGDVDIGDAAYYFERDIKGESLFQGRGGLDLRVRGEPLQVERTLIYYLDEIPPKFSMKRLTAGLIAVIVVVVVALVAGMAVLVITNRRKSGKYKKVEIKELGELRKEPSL
# B1: A1,2X4-MMAE ADC (antibody, V domains shown)
# VH: QVQLQESGPGLVKPSETLSLTCTVSGFSLTSYGVNWIRQPPGKGLEWIGVMWAGGSTNYNSALMSRLTISKDTSKNQFSLKLSSVTAADTAVYYCARDENWDGAWFAYWGQGTLVTVSS
# VL: DIVMTQSPDSLAVSLGERATINCKSSQSLLNSGTRKNYLAWYQQKPGQPPKLLISWASSRESGVPDRFSGSGSGTDFTLTISSLQAEDVAVYYCKQSYNLFTFGGGTKVEIK
# modifications: MMAE-linker conjugated to the antibody; positions not given
# Biological target: T1, human Trop-2
# Assay: cell-based or functional assay
binder,measurement,value
B1,"IC50 (nM), in vitro cytotoxicity assay on MDA-MB-468 cells",0.389 nM
